# According to the supplement of paper PMC9170038:
# Test system: MS2 coat protein
# Assay: apparent KD of MS2 coat protein; designed switch direction (-1 OFF switch, 1 ON switch): -1; higher = weaker reporter binding
# Outline: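 The reported apparent KD is a per-design median over clusters, from curve fits of normalised cluster fluorescence. Protein titrations used SNAP-549-labelled MS2 coat protein, doubled from 0.7 or 1.5 nM to 3 µM, in Tris-HCl pH 7.5 buffer with KCl, MgCl2, BSA, DTT, tRNA and Tween-20, with no input, 200 uM small-molecule ligand, or an oligonucleotide input. The RNA switches were transcribed on Illumina chips by stalled E. coli RNA polymerase.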
# [1] = input ligand: microRNA oligo, concentration not stated
# [2] = Eterna round: R95, input ligand: FMN 200 uM
# [3] = Eterna round: R95, input ligand: microRNA oligo, concentration not stated
# [4] = Eterna round: R95, input ligand: none
Sequence,apparent KD of MS2 coat protein (input ligand: FMN 200 uM) [nM],apparent KD of MS2 coat protein [1] [nM],apparent KD of MS2 coat protein (input ligand: none) [nM],apparent KD of MS2 coat protein [2] [nM],apparent KD of MS2 coat protein [3] [nM],apparent KD of MS2 coat protein [4] [nM]
"AAAAAAUAAAAAACAAGCUACAUGAGGAUCACCCAUGUUACAAAAAUAAAAUAAAAAUAAAAUAAAAGUAAAAUGGG [Sensor V2: 75 Random] (Eterna round: R96, puzzle: Sensor v2, turn-off variant)",145,78.2,98.8,,,
AAAAAGAGAGGAUAUACAACAAAACAAAACAAAACAAACACACAUGAGGAUCACCCAUGUAGAAGGCUCGAAAA [Exclusion 2 #2] (puzzle: Exclusion 2),,,,25.1,16.5,19.3
"AAAAAGGCAGGAUAUGCAUACACACAAAAAAAAAAACUGGGACAUGAGGAUCACCCAUGUAGAAGGGCCAAAAA [Dora Explored 8 - Jieux - Exclusion 2] (Eterna round: R96, puzzle: Exclusion 2)",60.1,53.7,54.1,,,
AAAACACAUGAGGAUCACCCAUGUGAGGAUAUGUUAGUUUCGGCGAAAGCCGAAAUUAACAGAAGGCACAGAAA [JR_Exclusion1_Sub023] (puzzle: Exclusion 1),,,,44.7,39.4,40.1
"AAAACCAGAGGAUAUGCGCAUAGAUCAGACUUUGUUUCUGAACAUGAGGAUCACCCAUGUAGAAGGCUGUAAAA [Ex2 #82] (Eterna round: R97, puzzle: Exclusion 2)",27.3,,20.5,,,
"AAAACUAACACGAAAGUGUUAGUAAAAUAAGCUUGUGGUACAUGAGGAUCACCCAUGUCCUCAUAAGCUCGUCUUAU [Mat - Sensor v3 - Turn-off var 2 - D44] (puzzle: Sensor v3, turn-off variant 2)",,,,25.1,67.7,24.5
AAAAGGCUAGGAUAUACAUGAGGAUCACCCAUGUGUACUGGACAUGCGGUAUGCGUAUGUAGAAGGAGUAUAAA [Inaisor] (puzzle: Exclusion 3),,,,,14.2,
"AAAAGGUGAGGAUAUUCAAGGAAAGACAUGAGGAUCACCCAUGUAAGAAAGGAAAAGGGAGGAGAAGGUGUGAAAA [salish99_ex5_r4_136] (Eterna round: R97, puzzle: Exclusion 5)",62.1,,60.2,,,
"AAAAUAAUAAGUUUACGAACAUUUAGAAAAAGGGAUCCAACAUGAGGAUCACCCAUGUAUUAUCAGCAUAAACCCUA [JR_Sensorv2_tov2_Sub1270] (Eterna round: R96, puzzle: Sensor v2, turn-off variant 2)",341,270,360,,,
"AAAAUUGGUGAGGAUAUGCAGAUGCGCAAUGUCGCAGAAGGCACCACAUGAGGAUCACCCAUGUGUCCUCUAAA [EX6 A.19] (Eterna round: R97, puzzle: Exclusion 6)",34,,19.8,,,
"AAACAAUCCCGAGGAUAUCGGCUAUUAGCAUGCCGAGAAGGCGGCGCGCAUCGACAUGAGGAUCACCCAUGUGUCCGCUCGGUU [Eternabot solution 31] (Eterna round: R96, puzzle: Exclusion NG 1)",20.8,13.6,21.6,,,
"AAACCCUCCGUAAGGAUAUGCGCAGGUAAACCGCUGUAGAAGGUACAUGAGGAUCACCCAUGUUGGACCGUGGA [Eternabot (Original) Solution 35] (Eterna round: R97, puzzle: Brourd's mod of Exclusion 4)",36,,29,,,
AAACCGCAAGGAUAUUGUGGCGCUGACAUGAGGAUCACCCAUGUGGUGCUAGUCCCGCUGCGAGAAGGUGUGUAAA [Enesedrave] (puzzle: Exclusion 5),,,,,12.3,
"AAACCUGAAGUCAGGAUAUGAAGUAUCACUGUACUUCAGAAGGGACUUGAGGAUCACCCAAGUAGCCGUGAGGC [jl-bmx4.4.67 ViennaUCT mod] (Eterna round: R97, puzzle: Brourd's mod of Exclusion 4)",116,,28.8,,,
"AAACCUGGAGUUAGGAUAUGAAGUAUCACUGCGCUUCAGAAGGGACUUGAGGAUCACCCAAGUAAAAGUUAAAA [Teredi] (Eterna round: R97, puzzle: Brourd's mod of Exclusion 4)",20.8,,18.5,,,
"AAACGCAGAGGAUAUACAUAUUUUCCUCAUGUGCAGCUUACACAUGAGGAUCACCCAUGUAGAAGGCUGGAAAA [EX2 A.29] (Eterna round: R97, puzzle: Exclusion 2)",300,,48.6,,,
"AAACGCUGAGGAUAUAUAUAACAACAAAGCCUCACGUGCCAACAUGAGGAUCACCCAUGUAGAAGGCAGCCCAA [Mod R3 Insanara 12 - Jieux - Exclusion 2] (Eterna round: R97, puzzle: Exclusion 2)",15.8,,14.1,,,
"AAACGGCAGGGAGGAUAUGCUUGCCUGGGUCGUCUUCAAACAUGAGGAUCACCCAUGUAGUCGACGCAGAAGGCCCUCAAAGCC [JL ViennaUCT Ontiis mod 4] (Eterna round: R96, puzzle: Exclusion NG 2)",42.9,8.85,16.7,,,
"AAACGGCAGGGAGGAUAUGCUUGCCUGGGUCGUCUUCAGACAUGAGGAUCACCCAUGUAGUCGACGCAGAAGGCCCUCAAAGCC [JL ViennaUCT Ontiis mod 5] (Eterna round: R96, puzzle: Exclusion NG 2)",158,16.2,18.1,,,
"AAACUGUGAGGAUAUGCACGGGCCCUCUUAAUAAAACCAAAACAUGAGGAUCACCCAUGUAGAAGGCACACAUA [EX2 A.24] (Eterna round: R97, puzzle: Exclusion 2)",53.5,,543,,,
AAAGAACAUGAGGAUCACCCAUGUGAGGAUAUGUGAGAAUUGUGGAGAAGAAGAGAGAACAGAAGGCACUGAGG [JR_Exclu1_Sub067] (puzzle: Exclusion 1),,,,77,51.3,64.5
"AAAGAUGUAGGAUAUGUCCAUCCAGACAUGAGGAUCACCCAUGUGAGGGCCGGGUGUUGGGCAGAAGGACACCGGU [Eternabot (Original) Solution 19] (Eterna round: R97, puzzle: Exclusion 5)",27.2,,31.4,,,
"AAAGGAUGCCUAGGAUAUUGACGAAGAAAGGAUUAAGAAGGAGGAAAUAUAUGAGGGAUCCACAUGAGGAUCACCCAUGUACAC [Beveinveor] (Eterna round: R96, puzzle: Exclusion NG 1)",538,458,270,,,
"AAAGUAGGAGGAUAUGGAUAUAGUAACAUGAGGAUCACCCAUGUUCUUGGUGUUCGUUACCCAGAAGGCCUGACAC [Eternabot (L1) Solution 64] (Eterna round: R97, puzzle: Exclusion 5)",184,,91,,,
AAAGUCGGAGGAUAUACAAUAGAUGACAAUAAAGUUGGAGUACAUGAGGAUCACCCAUGUAGAAGGCCGAGAAA [Swimmer becomes a laser gun] (puzzle: Exclusion 2),,,,28.2,17.3,20.6
